Reference: PMC314469, “Protein Interaction Networks by Proteome Peptide Scanning” (PLoS Biology, 2004)

T1: Yhr016c SH3 (YSC84_YEAST), P32793
T1 chain: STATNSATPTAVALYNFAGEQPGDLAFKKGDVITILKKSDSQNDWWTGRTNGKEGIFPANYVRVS

T2: Boi2 SH3 (BOI2_YEAST), P39969
T2 chain: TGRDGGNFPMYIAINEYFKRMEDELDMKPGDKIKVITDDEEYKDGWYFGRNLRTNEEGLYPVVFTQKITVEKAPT

T3: Myo5 SH3 (MYO5_YEAST), Q04439
T3 chain: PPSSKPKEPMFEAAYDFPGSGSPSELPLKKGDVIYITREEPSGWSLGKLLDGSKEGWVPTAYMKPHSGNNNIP

T4: Boi1 SH3 (BOI1_YEAST), P38041
T4 chain: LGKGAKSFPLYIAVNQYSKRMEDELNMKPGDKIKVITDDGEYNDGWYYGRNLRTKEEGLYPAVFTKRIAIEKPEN

T5: Yfr024 SH3 (LSB3_YEAST), P43603
T5 chain: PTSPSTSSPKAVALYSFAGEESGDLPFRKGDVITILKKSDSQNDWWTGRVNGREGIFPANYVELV

T6: Rvs167 SH3 (RV167_YEAST), P39743
T6 chain: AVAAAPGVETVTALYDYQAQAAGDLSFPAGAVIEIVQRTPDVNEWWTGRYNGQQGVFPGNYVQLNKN


Tests used:
Test in all cases: SPOT array
[1] = target: T1, Yhr016c SH3 (YSC84_YEAST), P32793
[2] = target: T2, Boi2 SH3 (BOI2_YEAST), P39969
[3] = target: T3, Myo5 SH3 (MYO5_YEAST), Q04439
[4] = target: T4, Boi1 SH3 (BOI1_YEAST), P38041
[5] = target: T5, Yfr024 SH3 (LSB3_YEAST), P43603
[6] = target: Sho1 SH3 (SHO1_YEAST), P40073
Sho1 SH3 (SHO1_YEAST), P40073, sequence (P40073 295-366): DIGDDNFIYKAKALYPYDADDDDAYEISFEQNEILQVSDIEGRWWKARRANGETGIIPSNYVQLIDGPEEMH

[7] = target: T6, Rvs167 SH3 (RV167_YEAST), P39743

Binder	normalised SPOT signal, Boehringer light units (BLU); mean over the file's lines of this peptide [1]	normalised SPOT signal, Boehringer light units (BLU); mean over the file's lines of this peptide [2]	normalised SPOT signal, Boehringer light units (BLU); mean over the file's lines of this peptide [3]	normalised SPOT signal, Boehringer light units (BLU); mean over the file's lines of this peptide [4]	normalised SPOT signal, Boehringer light units (BLU); mean over the file's lines of this peptide [5]	normalised SPOT signal, Boehringer light units (BLU); mean over the file's lines of this peptide [6]	normalised SPOT signal, Boehringer light units (BLU); mean over the file's lines of this peptide [7]
TKFTKPKPKQPVLP [YLR439W 17-30]	2.8	6.1	445	295	0.2	57.7	23.4
TKAKKEKPKPPKPI [YMR044W 280-293]	21.2	11.1	158	546	95.1	56.3	32.6
TKTDKSYPMSPVDA [YOR208W 444-457]	15.5	19.3	150	52.5	50.1	36.1	105
TMKNKPKPTPPSPP [YPR171W 298-311]	217	52.3	910	292	588	47.8	48
TKRQRGEPSEPQQD [YGR241C 267-280]	43.3	21.1	27.7	2030	157	44.1	189
TGKFRYMPFSPAGT [YPR135W 471-484]	148	103	556	463	607	301	430

Next, values leading:

normalised SPOT signal, Boehringer light units (BLU); mean over the file's lines of this peptide [1]	normalised SPOT signal, Boehringer light units (BLU); mean over the file's lines of this peptide [2]	normalised SPOT signal, Boehringer light units (BLU); mean over the file's lines of this peptide [3]	normalised SPOT signal, Boehringer light units (BLU); mean over the file's lines of this peptide [4]	normalised SPOT signal, Boehringer light units (BLU); mean over the file's lines of this peptide [5]	normalised SPOT signal, Boehringer light units (BLU); mean over the file's lines of this peptide [6]	normalised SPOT signal, Boehringer light units (BLU); mean over the file's lines of this peptide [7]	Binder
43.5	15.5	158	30.1	470	7.4	85.3	TNGPRYSPQNPRPF [YMR124W 350-363]
1160	27.8	1190	1420	6310	121	3630	TGKPRKTPRPPFPF [YLR422W 149-162]
36.7	34.1	5860	3760	415	44.3	261	TGYPRYFPQPPVQR [YLL058W 44-57]
31.6	13	535	1510	304	64.1	30.6	TLKKKKTPKKPIAA [YKR084C 77-90]
64.8	0	205	0	92.4	28100	64.3	TLDEKNLPRLPTPF [YKR055W 36-49]
32.2	-0	249	51.5	202	39.5	198	TILERLTPLVPNNL [YKL017C 267-280]
82.1	6.9	76.4	95.6	304	86.9	130	TINSRFYPPIPISE [YMR154C 67-80]
42.6	27.5	73.6	60.6	60.2	30.3	120	TLNDRQIPLSPDQM [YAL026C 387-400]
12.6	37.3	694	495	321	25	156	TKKRKLGPKAPNPL [YOR004W 192-205]
57.9	15.4	212	58.2	27	32.4	85.7	TLDEKESPSVPPTV [YKL148C 624-637]
